Assay [1] deals with T1, APRIL (Acro Biosystems, Cat: APL-H52D1) (UniProt O75888 115-250, limits assumed).
T1 construct: also called ARPIL
T1 sequence (looked up): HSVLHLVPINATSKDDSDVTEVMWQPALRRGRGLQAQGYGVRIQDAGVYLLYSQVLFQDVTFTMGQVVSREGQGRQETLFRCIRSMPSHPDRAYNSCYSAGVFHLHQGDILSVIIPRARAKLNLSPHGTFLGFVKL
As to the kind of experiment: ELISA, APRIL coated; reference telitacicept; range told of the 3 fusion proteins, upper end tied to B613301 by Table 8. The procedure:
(§1) The capabilities of B613301, B613302, and B613303, which are fusion proteins of anifrolumab and TACI-BCMA, to bind to BAFF and APRIL were assessed by ELISA as follows: [0548] BAFF (PeproTech, Cat: 310-13) or ARPIL (Acro Biosystems, Cat: APL-H52D1) was diluted to 1 μg/mL with PBS, and a 96-well plate (Costar, Cat: 3590) was coated with the dilution overnight at 4° C. The plate was washed with PBST and blocked with Blocking Buffer (PBST containing 1% BSA) at 37° C. for 1 h. The plate was tapped. The test antibodies were diluted with Blocking Buffer. Incubation was performed at 37° C. for 1.5 h. The plate was washed with PBST. An HRP-mouse anti-human Fc antibody (GenScript, Cat: A01854-200) was diluted with Blocking Buffer. Incubation was performed at 37° C. for 40 min. The plate was washed with PBST. 100 μL of TMB substrate solution (Biopanda, Cat: TMB-S-003) was added, and color development was performed at 37° C. for 3 min. 100 μL of ELISA stop solution (Solarbio, Cat: C1058) was added. OD450 was measured.

For assay [2], the target named is T1, APRIL (Acro Biosystems, Cat: APL-H52D1). As to the kind of experiment: ELISA, APRIL coated at 1 ug/mL, anti-human Fc-HRP, OD450. The procedure: as §1
(ELISA stands for enzyme-linked immunosorbent assay.)

Assay [3] shares this target. The experiment in a line: ELISA, APRIL coated; reference telitacicept; range told of the 3 fusion proteins, lower end tied to B613302 by Table 8. The procedure:
as §1

What is called EC50 is the concentration at which the effect is half-maximal.

B1: B613301 (other)
heavy: EVQLVQSGAEVKKPGESLKISCKGSGYIFTNYWIAWVRQMPGKGLESMGIIYPGDSDIRYSPSFQGQVTISADKSITTAYLQWSSLKASDTAMYYCARHDIEGFDYWGRGTLVTVSSASTKGPSVFPLAPSSKSTSGGTAALGCLVKDYFPEPVTVSWNSGALTSGVHTFPAVLQSSGLYSLSSVVTVPSSSLGTQTYICNVNHKPSNTKVDKRVEPKSCDKTHTCPPCPAPEFEGGPSVFLFPPKPKDTLMISRTPEVTCVVVDVSHEDPEVKFNWYVDGVEVHNAKTKPREEQYNSTYRVVSVLTVLHQDWLNGKEYKCKVSNKALPASIEKTISKAKGQPREPQVYTLPPSRDELTKNQVSLTCLVKGFYPSDIAVEWESNGQPENNYKTTPPVLDSDGSFFLYSKLTVDKSRWQQGNVFSCSVMHEALHNHYTQKSLSLSPGK
light: EIVLTQSPGTLSLSPGERATLSCRASQSVSSSFFAWYQQKPGQAPRLLIYGASSRATGIPDRLSGSGSGTDFTLTITRLEPEDFAVYYCQQYDSSAITFGQGTRLEIKRTVAAPSVFIFPPSDEQLKSGTASVVCLLNNFYPREAKVQWKVDNALQSGNSQESVTEQDSKDSTYSLSSTLTLSKADYEKHKVYACEVTHQGLSSPVTKSFNRGECGGGGSGGGGSLSCRKEQGKFYDHLLRDCISCASICGQHPKQCAYFCENKLRSPGMLQMAGQCSQNEYFDSLLHACIPCQLRCSSNTPPLTCQRYCNASVTNSVKGTNA
notes: Fusion protein of anifrolumab and TACI-BCMA
Take B1: the “EC50 relative to telitacicept” value in assay [1] is 0.167 fold. In addition, in assay [2], the EC50 was determined as 0.201 nM and the Emax came to 2.49.

B2: B613302 (other)
heavy: B1 heavy
light: EIVLTQSPGTLSLSPGERATLSCRASQSVSSSFFAWYQQKPGQAPRLLIYGASSRATGIPDRLSGSGSGTDFTLTITRLEPEDFAVYYCQQYDSSAITFGQGTRLEIKRTVAAPSVFIFPPSDEQLKSGTASVVCLLNNFYPREAKVQWKVDNALQSGNSQESVTEQDSKDSTYSLSSTLTLSKADYEKHKVYACEVTHQGLSSPVTKSFNRGECGGGGSGGGGSMLQMAGQCSQNEYFDSLLHACIPCQLRCSSNTPPLTCQRYCNASVTNSVKGTNALSCRKEQGKFYDHLLRDCISCASICGQHPKQCAYFCENKLRSPG
notes: as for B1
Regarding B2, in assay [2], the EC50 was determined as 0.124 nM and the Emax amounted to 2.52. For the same molecule, the “EC50 relative to telitacicept” value in assay [3] worked out at 0.1 fold.

Values taken from patent publication US20260056186A1 (JIANGSU HENGRUI PHARMACEUTICALS, published 2026).
